Measured values reported in patent US20220267447A1.

Experiments:
[1] = biological target: TYK2 kinase domain (JH1); assay: cell-based or functional assay
[2] = biological target: JAK3 kinase domain (JH1); assay: cell-based or functional assay
[3] = biological target: JAK1 kinase domain (JH1) (Homo sapiens (Human)) (UniProt P23458); assay: cell-based or functional assay
[4] = biological target: JAK2 kinase domain (JH1); assay: cell-based or functional assay
[5] = biological target: JAK1-Y1034 phosphopeptide with an alanine substitution at the +3 position (Homo sapiens); assay: ITC
[6] = biological target: JAK1 activation loop phosphopeptide (Tyr1034 phosphorylated) (Homo sapiens); assay: ITC

JAK1 kinase domain (JH1) (Homo sapiens (Human)), sequence (P23458 854-1154 limits assumed): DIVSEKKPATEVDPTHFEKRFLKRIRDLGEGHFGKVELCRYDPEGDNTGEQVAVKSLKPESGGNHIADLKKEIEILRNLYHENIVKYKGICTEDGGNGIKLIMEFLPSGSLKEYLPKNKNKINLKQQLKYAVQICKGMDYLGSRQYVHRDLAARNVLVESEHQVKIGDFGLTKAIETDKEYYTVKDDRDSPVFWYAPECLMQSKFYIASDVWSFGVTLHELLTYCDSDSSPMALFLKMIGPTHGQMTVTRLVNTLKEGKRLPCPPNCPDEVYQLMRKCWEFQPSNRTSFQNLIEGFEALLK
human CIS lacking the N-terminal 34 residues (AN34), trimeric complex with elongin B and elongin C, sequence (Q9NSE2 35-258): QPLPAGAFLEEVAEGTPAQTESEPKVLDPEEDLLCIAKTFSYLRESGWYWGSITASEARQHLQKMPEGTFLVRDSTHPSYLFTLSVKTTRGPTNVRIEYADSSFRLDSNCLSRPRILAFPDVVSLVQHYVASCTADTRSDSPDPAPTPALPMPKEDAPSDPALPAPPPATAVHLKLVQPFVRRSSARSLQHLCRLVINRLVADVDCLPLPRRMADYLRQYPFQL
human CIS lacking the N-terminal 34 residues (AN34), trimeric complex with elongin B and elongin C, sequence (Q15370 whole entry): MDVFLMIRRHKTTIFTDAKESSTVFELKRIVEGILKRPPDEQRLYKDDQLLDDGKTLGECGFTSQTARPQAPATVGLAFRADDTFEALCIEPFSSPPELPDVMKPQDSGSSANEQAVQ
human CIS lacking the N-terminal 34 residues (AN34), trimeric complex with elongin B and elongin C, sequence (Q15369 17-112): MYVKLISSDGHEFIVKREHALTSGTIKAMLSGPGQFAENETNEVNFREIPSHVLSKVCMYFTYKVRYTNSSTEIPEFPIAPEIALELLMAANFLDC

hCIS-SH2-BC: recombinant trimeric complex of a human GST-CIS construct (hCIS-SH2) with Elongins B and C (from UniProt Q9NSE2 66-258; Q15370 1-118; Q15369 17-112)
kinase inhibition relative to inhibition of JAK1 (in vitro kinase assay with JH1 domains) [1]: 20 fold
kinase inhibition relative to inhibition of JAK1 (in vitro kinase assay with JH1 domains) [2]: 20 fold
IC50, inhibition of JAK1 phosphorylation of a substrate peptide (in vitro kinase assay) [3]: 0.12 µM
efficiency of JAK1 JH1 kinase inhibition relative to SOCS1 [3]: 100 fold
kinase inhibition relative to inhibition of JAK1 (in vitro kinase assay with JH1 domains) [4]: 20 fold

human CIS lacking both the N-terminal region (residues 1-66) and the PEST motif (ANT/APEST), trimeric complex with elongin B and elongin C (from UniProt Q9NSE2 67-258; Q15370 1-118; Q15369 17-112)
IC50, inhibition of the JAK1 kinase domain (JH1) in an in vitro kinase reaction [3]: 0.6 µM
fold reduction of binding against the wild-type JAK1-Y1034 phosphopeptide [5]: 4 fold

human CIS lacking the N-terminal 34 residues (AN34), trimeric complex with elongin B and elongin C (from UniProt Q9NSE2 35-258; Q15370 1-118; Q15369 17-112)
Kd [6]: 2.2 to 10 µM
